Measured values as given in patent US20260209320A1 (ALCHEMAB THERAPEUTICS, published 2026).
Where no end group is shown, it is not given here.

T1: biotinylated GYSLPQPQPPPPPPPPPP peptide (also: biotinylated, position not given here)
T1 construct: also called HTT exon1 in the form of biotinylated peptide
T1 peptide: GYSLPQPQPPPPPPPPPP

T2: human lysozyme (human, UniProt P61626 19-148)
T2 sequence (looked up): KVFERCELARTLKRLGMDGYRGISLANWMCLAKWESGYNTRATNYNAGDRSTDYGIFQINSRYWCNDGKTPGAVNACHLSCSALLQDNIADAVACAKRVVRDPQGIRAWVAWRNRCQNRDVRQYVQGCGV


What was measured:
[1] = biological target: T3, Mutant Human HTT Exon 1 48Q (GST) (human); assay: HTT sandwich ELISA, experiment 2 (400 nM starting concentration)
T3 construct: recombinant His- and GST-tagged fusion; also called HTT Exon 1 Q48; 48Q HTT Exon-1
T3 sequence (chain, as listed by the source mutant limits assumed): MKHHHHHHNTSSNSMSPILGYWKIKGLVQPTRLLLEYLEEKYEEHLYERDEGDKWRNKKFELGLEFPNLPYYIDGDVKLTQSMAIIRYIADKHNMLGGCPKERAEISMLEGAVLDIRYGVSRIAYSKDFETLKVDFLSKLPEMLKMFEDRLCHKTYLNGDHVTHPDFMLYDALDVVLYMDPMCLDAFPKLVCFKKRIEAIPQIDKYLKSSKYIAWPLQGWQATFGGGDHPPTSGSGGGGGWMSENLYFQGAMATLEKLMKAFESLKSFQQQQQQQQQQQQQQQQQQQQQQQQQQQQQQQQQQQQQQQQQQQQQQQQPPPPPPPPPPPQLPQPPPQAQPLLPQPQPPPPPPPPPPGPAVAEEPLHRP

[2] = biological target: T1, biotinylated GYSLPQPQPPPPPPPPPP peptide; assay: BLI (Octet), biotinylated peptide on streptavidin biosensor
[3] = biological target: T3, Mutant Human HTT Exon 1 48Q (GST); assay: HTT sandwich ELISA, experiment 1 (133 nM starting concentration)
[4] = biological target: T3, Mutant Human HTT Exon 1 48Q (GST); assay: HTT sandwich ELISA
[5] = biological target: T3, Mutant Human HTT Exon 1 48Q (GST); assay: ELISA
[6] = biological target: T3, Mutant Human HTT Exon 1 48Q (GST); assay: HTT sandwich ELISA; remark: listed apart in the source
human lysozyme = biological target: T2, human lysozyme; assay: direct ELISA

| Binder | EC50 [1] [nM] | binding result [2] | EC50 [3] [nM] | also measured |
| --- | --- | --- | --- | --- |
| ATL_0006195 (antibody, V domains shown, expressed in IgG1 format; also called ATL_6195) VH: EVQLVESGGGLVKPGGSLRLSCAASGFTFNKAWMSWVRQAPGKGLEWVGRIKSGIDAGTTDYAAPVKGRFTISRDDSKNTLYLQMNSLKTEDTAVYYCTPPPYYYYYGLDVWGQGTTVTVSS VL: QSALTQPRSVSGSPGQSVTISCTGTSSDVGSYNLVSWYQQHPGKAPKLMIYEVNKRPSGVPDRFSGSKSGATASLTISGLQAEDEADYYCGSYAGTANVFGTGTKVTVL | 14.7 | binds | 21.1 | – |
| ATL_0006194 (antibody, V domains shown, expressed in IgG1 format; also called ATL_6194; ATL6194) VH: EVQLVESGGGLVKPGGSLRLSCAASGFTFNKAWMSWVRQAPGKGLEWVGRIKSGIDAGTTDYAAPVKGRFTISRDDSKNTLYLQMNSLKTEDTAVYYCVPPPYYYYYGLDVWGQGTTVTVSS VL: QSALTQPRSVSGSPGQSVTISCTGTSSDVGSYNLVSWYQQHPGKAPKLMIYEVNKRPSGVPDRFSGSKSGATASLTISGLQAEDEADYYCVSYAGTANVFGTGTKVTVL | 14 | binds | 19.8 | – |
| ATL_0006183 (antibody, V domains shown, HD patient (ENBB) HCDR3 in ATL5895 VH, ATL5895 VL; also called ATL_6183; ATL6183) VH: EVQLVESGGGLVKPGGSLRLSCAASGFTFNKAWMSWVRQAPGKGLEWVGRIKSGIDAGTTDYAAPVKGRFTISRDDSKNTLYLQMNSLKTEDTAVYYCTPPPYYYYGLDVWGQGTTVTVSS VL: QSALTQPRSVSGSPGQSVTISCTGTSSDVGSYNLVSWYQQHPGKAPKLMIYEVNKRPSGVPDRFSGSKSGATASLTISGLQAEDEADYYCGSYAGTANVFGTGTKVTVL | – | – | – | EC50 [4]: 9.2 nM |
| ATL_0005334 (antibody, V domains shown, human IgG1; also called ATL_5334) VH: EVQLVESGGGLVKPGGSLRLSCAASGFTFNKAWMNWVRQAPGKGLEWVGRIKSGIDGGTTDYAAPVQGRFTISRDDSKNTVYLQMNSLNTEDTAVYYCIPPPYYYYYGLDVWGQGTTVTVSS VL: QSALTQPASVSGSPGQSITISCTGTSSDVGGYKLVSWYQQHPGRAPKLMIYEVSKRPSGVSSRFSGSKSGSTASLTISGLQAEDEADYYCCSYAGSSVVFGGGTKLTVL | – | – | – | binding result [5]: binds |
| ATL_0006205 (antibody, IgG1, V domains shown, IgG1 format; also called ATL_6205) VH: EVQLVESGGGLVKPGGSLRLSCAASGFTFNKAWMSWVRQAPGKGLEWVGRIKSGIDAGTTDYAAPVKGRFTISRDDSKNTLYLQMNSLKTEDTAVYWCVPPPYYYYYGLDVWGQGTTVTVSS VL: QSALTQPRSVSGSPGQSVTISCTGTSSDVGSYNLVSWYQQHPGKAPKLMIYEVNKRPSGVPDRFSGSKSGATASLTISGLQAEDEADYYCVSYAGTANVFGTGTKVTVL | 16.4 | binds | 13.4 | – |
| ATL_0006377 (antibody, V domains shown, also called ATL_6377) VH: EVQLVESGGGLVKPGGSLRLSCAASGFTFNKAWMSWVRQAPGKGLEWVGRIKSGIDAGTTDYAAPVKGRFTISRDDSKNTLYLQMNSLKTEDTAVYYCVPSPYYYYYGLDVWGQGTTVTVSS VL: QSALTQPRSVSGSPGQSVTISCTGTSSDVGSYNLVSWYQQHPGKAPKLMIYEVNKRPSGVPDRFSGSKSGATASLTISGLQAEDEADYYCVSYAGTANVFGTGTKVTVL | – | – | – | EC50 [6]: 23.8 nM; binding result (human lysozyme): no binding (tested: less than 1 µM) |
| ATL_0006202 (antibody, IgG1, V domains shown, IgG1 format; also called ATL_6202) VH: EVQLVESGGGLVKPGGSLRLSCAASGFTFNKAWMSWVRQAPGKGLEWVGRIKSGIDAGTTDYAAPVKGRFTISRDDSKNTLYLQMNSLKTEDTAVYYCSPPPFYYYYGLDVWGQGTTVTVSS VL: QSALTQPRSVSGSPGQSVTISCTGTSSDVGSYNLVSWYQQHPGKAPKLMIYEVNKRPSGVPDRFSGSKSGATASLTISGLQAEDEADYYCVSYGGTENVFGTGTKVTVL | 13.5 | binds | – | – |
| ATL_0006375 (antibody, V domains shown, also called ATL_6375) VH: EVQLVESGGGLVKPGGSLRLSCAASGFTFNKAWMSWVRQAPGKGLEWVGRIKSGIDAGTTDYAAPVKGRFTISRDDSKNTLYLQMNSLKTEDTAVYYCVPPPYYYYYGLDVWGQGTTVTVSS VL: QSALTQPRSVSGSPGQSVTISCTGTSSDVGSYNLVSWYQQHPGKAPKLMIYEVNKRPSGVPDRFSGSKSGATASLTISGLQAEDEADYYCVSYGGTENVFGTGTKVTVL | – | – | – | EC50 [6]: 20.1 nM |
| ATL_0006374 (antibody, V domains shown, also called ATL_6374; ATL 6374) VH: EVQLVESGGGLVKPGGSLRLSCAASGFTFNKAWMSWVRQAPGKGLEWVGRIKSGIDAGTTDYAAPVKGRFTISRDDSKNTLYLQMNSLKTEDTAVYWCVPPPYYYYYGLDVWGQGTTVTVSS VL: QSALTQPRSVSGSPGQSVTISCTGTSSDVGSYNLVSWYQQHPGKAPKLMIYEVNKRPSGVPDRFSGSKSGATASLTISGLQAEDEADYYCVSYGGTENVFGTGTKVTVL | – | binds | – | EC50 [6]: 31.1 nM |
| ATL_0006378 (antibody, V domains shown, also called ATL_6378; ATL 6378) VH: EVQLVESGGGLVKPGGSLRLSCAASGFTFNKAWMSWVRQAPGKGLEWVGRIKSGIDAGTTDYAAPVKGRFTISRDDSKNTLYLQMNSLKTEDTAVYYCVPSPYYYYYGLDVWGQGTTVTVSS VL: QSALTQPRSVSGSPGQSVTISCTGTSSDVGSYNLVSWYQQHPGKAPKLMIYEVNKRPSGVPDRFSGSKSGATASLTISGLQAEDEADYYCVSYGGTENVFGTGTKVTVL | – | – | – | EC50 [6]: 38.9 nM |
| ATL_0006185 (antibody, V domains shown, HD patient (ENBB) HCDR3 in ATL5895 VH, ATL5895 VL; also called ATL_6185; ATL6185) VH: EVQLVESGGGLVKPGGSLRLSCAASGFTFNKAWMSWVRQAPGKGLEWVGRIKSGIDAGTTDYAAPVKGRFTISRDDSKNTLYLQMNSLKTEDTAVYYCTPPPYYYYGLNVWGQGTTVTVSS VL: QSALTQPRSVSGSPGQSVTISCTGTSSDVGSYNLVSWYQQHPGKAPKLMIYEVNKRPSGVPDRFSGSKSGATASLTISGLQAEDEADYYCGSYAGTANVFGTGTKVTVL | – | – | – | EC50 [4]: 7.31 nM |
| ATL_0006199 (antibody, V domains shown, expressed in IgG1 format; also called ATL_6199) VH: EVQLVESGGGLVKPGGSLRLSCAASGFTFNKAWMSWVRQAPGKGLEWVGRIKSGIDAGTTDYAAPVKGRFTISRDDSKNTLYLQMNSLKTEDTAVYWCSPPPYYYYYGLDVWGQGTTVTVSS VL: QSALTQPRSVSGSPGQSVTISCTGTSSDVGSYNLVSWYQQHPGKAPKLMIYEVNKRPSGVPDRFSGSKSGATASLTISGLQAEDEADYYCGSYAGTANVFGTGTKVTVL | 13.1 | binds | 15 | – |
| ATL_0006204 (antibody, V domains shown, expressed in IgG1 format; also called ATL_6204) VH: EVQLVESGGGLVKPGGSLRLSCAASGFTFNKAWMSWVRQAPGKGLEWVGRIKSGIDAGTTDYAAPVKGRFTISRDDSKNTLYLQMNSLKTEDTAVYYCIPPPYYYYYGLDVWGQGTTVTVSS VL: QSALTQPRSVSGSPGQSVTISCTGTSSDVGSYNLVSWYQQHPGKAPKLMIYEVNKRPSGVPDRFSGSKSGATASLTISGLQAEDEADYYCVSFAGTANVFGTGTKVTVL | 12.2 | binds | 16.2 | – |
| ATL_0006203 (antibody, V domains shown, expressed in IgG1 format; also called ATL_6203) VH: EVQLVESGGGLVKPGGSLRLSCAASGFTFNKAWMSWVRQAPGKGLEWVGRIKSGIDAGTTDYAAPVKGRFTISRDDSKNTLYLQMNSLKTEDTAVYYCIPSPYYYYYGLDVWGQGTTVTVSS VL: QSALTQPRSVSGSPGQSVTISCTGTSSDVGSYNLVSWYQQHPGKAPKLMIYEVNKRPSGVPDRFSGSKSGATASLTISGLQAEDEADYYCVSYAGTANVFGTGTKVTVL | 8.72 | binds | 8.91 | – |
| ATL_0006376 (antibody, V domains shown, also called ATL_6376) VH: EVQLVESGGGLVKPGGSLRLSCAASGFTFNKAWMSWVRQAPGKGLEWVGRIKSGIDAGTTDYAAPVKGRFTISRDDSKNTLYLQMNSLKTEDTAVYYCVPPPFYYYYGLDVWGQGTTVTVSS VL: QSALTQPRSVSGSPGQSVTISCTGTSSDVGSYNLVSWYQQHPGKAPKLMIYEVNKRPSGVPDRFSGSKSGATASLTISGLQAEDEADYYCVSYGGTENVFGTGTKVTVL | – | – | – | EC50 [6]: 11.5 nM; binding result (human lysozyme): no binding (tested: less than 1 µM) |
| ATL_0006200 (antibody, V domains shown, expressed in IgG1 format; also called ATL_6200) VH: EVQLVESGGGLVKPGGSLRLSCAASGFTFNKAWMSWVRQAPGKGLEWVGRIKSGIDAGTTDYAAPVKGRFTISRDDSKNTLYLQMNSLKTEDTAVYYCVPPPYYYYYGLDVWGQGTTVTVSS VL: QSALTQPRSVSGSPGQSVTISCTGTSSDVGSYNLVSWYQQHPGKAPKLMIYEVNKRPSGVPDRFSGSKSGATASLTISGLQAEDEADYYCGSYAGTANVFGTGTKVTVL | 9.75 | binds | 12.8 | – |
| ATL_0006184 (antibody, V domains shown, HD patient (ENBB) HCDR3 in ATL5901 VH, ATL5901 VL; also called ATL_6184; ATL6184) VH: EVQLVESGGGLVKPGGSLRLSCAASGFTFNKAWMSWVRQAPGKGLEWVGRIKSGIDAGTTDYAAPVKGRFTISRDDSKATLYLQMNSLKTEDTAVYYCTPPPYYYYGLDVWGQGTTVTVSS VL: QSALTQPASVSGSPGQSITISCTGTSSDVGGYKLVSWYQQHPGRAPKLMIYEVSKRPSGVSSRFSGSKSGSTASLTISGLQAEDEADYYCSSYAGSSVVFGGGTKLTVL | – | – | – | EC50 [4]: 10.1 nM |
| ATL_0006186 (antibody, V domains shown, HD patient (ENBB) HCDR3 in ATL5901 VH, ATL5901 VL; also called ATL_6186; ATL6186) VH: EVQLVESGGGLVKPGGSLRLSCAASGFTFNKAWMSWVRQAPGKGLEWVGRIKSGIDAGTTDYAAPVKGRFTISRDDSKATLYLQMNSLKTEDTAVYYCTPPPYYYYGLNVWGQGTTVTVSS VL: QSALTQPASVSGSPGQSITISCTGTSSDVGGYKLVSWYQQHPGRAPKLMIYEVSKRPSGVSSRFSGSKSGSTASLTISGLQAEDEADYYCSSYAGSSVVFGGGTKLTVL | – | – | – | EC50 [4]: 11.1 nM |
